Measurements reported in US20040146507A1 (Genentech, published 2004).

T1: rhesus CD11a (rhesus, UniProt H9Z8N3 26-1169)
T1 construct: whole, on cells; On rhesus peripheral blood lymphocytes or leukocytes; also called rhCD11a
T1 sequence: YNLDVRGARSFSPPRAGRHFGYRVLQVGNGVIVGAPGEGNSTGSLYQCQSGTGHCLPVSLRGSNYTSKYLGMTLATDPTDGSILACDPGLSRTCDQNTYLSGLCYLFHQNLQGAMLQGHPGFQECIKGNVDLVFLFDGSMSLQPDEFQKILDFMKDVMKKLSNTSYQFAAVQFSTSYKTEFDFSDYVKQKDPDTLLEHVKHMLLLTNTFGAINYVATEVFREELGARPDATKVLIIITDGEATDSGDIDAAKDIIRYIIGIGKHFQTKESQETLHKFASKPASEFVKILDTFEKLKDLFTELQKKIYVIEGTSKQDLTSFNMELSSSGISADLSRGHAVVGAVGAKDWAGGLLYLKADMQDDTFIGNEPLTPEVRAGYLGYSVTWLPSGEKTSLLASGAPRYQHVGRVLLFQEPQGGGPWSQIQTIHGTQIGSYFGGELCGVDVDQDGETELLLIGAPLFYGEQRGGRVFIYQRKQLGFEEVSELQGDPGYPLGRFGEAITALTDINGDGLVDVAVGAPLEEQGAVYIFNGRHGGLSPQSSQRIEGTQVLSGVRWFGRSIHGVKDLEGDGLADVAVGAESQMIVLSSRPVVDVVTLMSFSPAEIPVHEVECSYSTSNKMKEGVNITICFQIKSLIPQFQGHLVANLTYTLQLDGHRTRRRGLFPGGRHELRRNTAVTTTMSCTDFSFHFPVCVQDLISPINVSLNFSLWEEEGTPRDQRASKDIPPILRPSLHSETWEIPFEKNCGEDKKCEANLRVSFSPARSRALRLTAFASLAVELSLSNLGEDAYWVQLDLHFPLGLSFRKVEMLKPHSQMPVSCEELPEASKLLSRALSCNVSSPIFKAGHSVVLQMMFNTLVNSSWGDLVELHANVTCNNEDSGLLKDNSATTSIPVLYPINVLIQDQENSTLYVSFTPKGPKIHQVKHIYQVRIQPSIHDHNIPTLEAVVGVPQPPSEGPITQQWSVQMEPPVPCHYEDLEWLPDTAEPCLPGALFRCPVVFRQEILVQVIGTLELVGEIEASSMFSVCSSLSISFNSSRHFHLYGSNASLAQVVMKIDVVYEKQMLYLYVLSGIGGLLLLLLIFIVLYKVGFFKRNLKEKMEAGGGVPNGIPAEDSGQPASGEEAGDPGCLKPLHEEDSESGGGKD


Target: T1, rhesus CD11a
Test: rhesus PBL binding

| Var.EC50/HuIgG1 EC50 [ratio] | Binder |
| --- | --- |
| 3.3 | HuIgG1 mutant AsnL92Ala (antibody, V domains shown, HuIgG1 mutant, human IgG1; Kabat numbering) VH: EVQLVESGGGLVQPGGSLRLSCAASGYSFTGHWMNWVRQAPGKGLEWVGMIHPSDSETRYNQKFKDRFTISVDKSKNTLYLQMNSLRAEDTAVYYCARGIYFYGTTYFDYWGQGTLVTVSS VL: DIQMTQSPSSLSASVGDRVTITCRASKTISKYLAWYQQKPGKAPKLLIYSGSTLQSGVPSRFSGSGSGTDFTLTISSLQPEDFATYYCQQHAEYPLTFGQGTKVEIKR |

Target: T2, human CD11a (human, UniProt P20701 26-1170)
T2 construct: whole, on cells; On Jurkat T-cells or human peripheral blood mononuclear cells, as part of LFA-1; also called CD11a on Jurkat cells; alpha subunit of LFA-1
Test: FACScan, Jurkat cells
Protocol: Aliquots of 10⁶ Jurkat T-cells were incubated with serial dilutions of humanized and control antibodies in PBS-0.1% BSA-10 mM sodium azide for 45 min at 4° C. The cells were washed and then incubated in fluorescein-conjugated goat anti-human F(ab′)₂ (Organon Teknika, Westchester, Pa.) for 45 min at 4° C. Cells were washed and analysed on a FACScan (Becton Dickinson, Mountain View, Calif.). 8×10³ cells were acquired by list mode and gated by forward light scatter versus side light scatter, thereby excluding dead cells and debris.
To determine which CDR residues were involved in binding to human CD11a an alanine-scan (Cunningham et al., Science 244:1081 (1989)) was performed on the CDR residues of HuIgG1. Each mutant was tested for binding to CD11a on Jurkat cells. In the light chain only CDR-L3 contributes to binding.

| Var.EC50/HuIgG1 EC50 [ratio] | Binder |
| --- | --- |
| 3.3 | HuIgG1 mutant AsnL92Ala (antibody, V domains shown, HuIgG1 mutant, human IgG1; Kabat numbering) VH: EVQLVESGGGLVQPGGSLRLSCAASGYSFTGHWMNWVRQAPGKGLEWVGMIHPSDSETRYNQKFKDRFTISVDKSKNTLYLQMNSLRAEDTAVYYCARGIYFYGTTYFDYWGQGTLVTVSS VL: DIQMTQSPSSLSASVGDRVTITCRASKTISKYLAWYQQKPGKAPKLLIYSGSTLQSGVPSRFSGSGSGTDFTLTISSLQPEDFATYYCQQHAEYPLTFGQGTKVEIKR |
| 7.6 | HuIgG1 mutant TyrH100cAla (antibody, V domains shown, HuIgG1 mutant, human IgG1; Kabat numbering) VH: EVQLVESGGGLVQPGGSLRLSCAASGYSFTGHWMNWVRQAPGKGLEWVGMIHPSDSETRYNQKFKDRFTISVDKSKNTLYLQMNSLRAEDTAVYYCARGIYFYGTTAFDYWGQGTLVTVSS VL: DIQMTQSPSSLSASVGDRVTITCRASKTISKYLAWYQQKPGKAPKLLIYSGSTLQSGVPSRFSGSGSGTDFTLTISSLQPEDFATYYCQQHNEYPLTFGQGTKVEIK |
| 1.4 | HuIgG1 mutant TyrH99Ala (antibody, V domains shown, HuIgG1 mutant, human IgG1; Kabat numbering) VH: EVQLVESGGGLVQPGGSLRLSCAASGYSFTGHWMNWVRQAPGKGLEWVGMIHPSDSETRYNQKFKDRFTISVDKSKNTLYLQMNSLRAEDTAVYYCARGIYFAGTTYFDYWGQGTLVTVSS VL: DIQMTQSPSSLSASVGDRVTITCRASKTISKYLAWYQQKPGKAPKLLIYSGSTLQSGVPSRFSGSGSGTDFTLTISSLQPEDFATYYCQQHNEYPLTFGQGTKVEIK |
| 2.3 | HuIgG1 mutant HisH32Ala (antibody, V domains shown, HuIgG1 mutant, human IgG1; Kabat numbering) VH: EVQLVESGGGLVQPGGSLRLSCAASGYSFTGAWMNWVRQAPGKGLEWVGMIHPSDSETRYNQKFKDRFTISVDKSKNTLYLQMNSLRAEDTAVYYCARGIYFYGTTYFDYWGQGTLVTVSS VL: DIQMTQSPSSLSASVGDRVTITCRASKTISKYLAWYQQKPGKAPKLLIYSGSTLQSGVPSRFSGSGSGTDFTLTISSLQPEDFATYYCQQHNEYPLTFGQGTKVEIK |
| 1.4 | HuIgG1 mutant ThrH100bAla (antibody, V domains shown, HuIgG1 mutant, human IgG1; Kabat numbering) VH: EVQLVESGGGLVQPGGSLRLSCAASGYSFTGHWMNWVRQAPGKGLEWVGMIHPSDSETRYNQKFKDRFTISVDKSKNTLYLQMNSLRAEDTAVYYCARGIYFYGTAYFDYWGQGTLVTVSS VL: DIQMTQSPSSLSASVGDRVTITCRASKTISKYLAWYQQKPGKAPKLLIYSGSTLQSGVPSRFSGSGSGTDFTLTISSLQPEDFATYYCQQHNEYPLTFGQGTKVEIK |
| 11.8 | HuIgG1 mutant TyrL94Ala (antibody, V domains shown, HuIgG1 mutant, human IgG1; Kabat numbering) VH: EVQLVESGGGLVQPGGSLRLSCAASGYSFTGHWMNWVRQAPGKGLEWVGMIHPSDSETRYNQKFKDRFTISVDKSKNTLYLQMNSLRAEDTAVYYCARGIYFYGTTYFDYWGQGTLVTVSS VL: DIQMTQSPSSLSASVGDRVTITCRASKTISKYLAWYQQKPGKAPKLLIYSGSTLQSGVPSRFSGSGSGTDFTLTISSLQPEDFATYYCQQHNEAPLTFGQGTKVEIKR |
| 5.2 | HuIgG1 mutant LysH73Ala (antibody, V domains shown, HuIgG1 mutant, human IgG1; Kabat numbering) VH: EVQLVESGGGLVQPGGSLRLSCAASGYSFTGHWMNWVRQAPGKGLEWVGMIHPSDSETRYNQKFKDRFTISVDASKNTLYLQMNSLRAEDTAVYYCARGIYFYGTTYFDYWGQGTLVTVSS VL: DIQMTQSPSSLSASVGDRVTITCRASKTISKYLAWYQQKPGKAPKLLIYSGSTLQSGVPSRFSGSGSGTDFTLTISSLQPEDFATYYCQQHNEYPLTFGQGTKVEIK |
| 10.9 | HuIgG1 mutant TyrH97Ala (antibody, V domains shown, HuIgG1 mutant, human IgG1; Kabat numbering) VH: EVQLVESGGGLVQPGGSLRLSCAASGYSFTGHWMNWVRQAPGKGLEWVGMIHPSDSETRYNQKFKDRFTISVDKSKNTLYLQMNSLRAEDTAVYYCARGIAFYGTTYFDYWGQGTLVTVSS VL: DIQMTQSPSSLSASVGDRVTITCRASKTISKYLAWYQQKPGKAPKLLIYSGSTLQSGVPSRFSGSGSGTDFTLTISSLQPEDFATYYCQQHNEYPLTFGQGTKVEIK |
| 6.9 | HuIgG1 mutant SerH28Ala (antibody, V domains shown, HuIgG1 mutant, human IgG1; Kabat numbering) VH: EVQLVESGGGLVQPGGSLRLSCAASGYAFTGHWMNWVRQAPGKGLEWVGMIHPSDSETRYNQKFKDRFTISVDKSKNTLYLQMNSLRAEDTAVYYCARGIYFYGTTYFDYWGQGTLVTVSS VL: DIQMTQSPSSLSASVGDRVTITCRASKTISKYLAWYQQKPGKAPKLLIYSGSTLQSGVPSRFSGSGSGTDFTLTISSLQPEDFATYYCQQHNEYPLTFGQGTKVEIK |
| 1.1 | HuIgG1 mutant L2 (antibody, V domains shown, HuIgG1 mutant, human IgG1; Kabat numbering) VH: EVQLVESGGGLVQPGGSLRLSCAASGYSFTGHWMNWVRQAPGKGLEWVGMIHPSDSETRYNQKFKDRFTISVDKSKNTLYLQMNSLRAEDTAVYYCARGIYFYGTTYFDYWGQGTLVTVSS VL: DIQMTQSPSSLSASVGDRVTITCRASKTISKYLAWYQQKPGKAPKLLIYAGAALQSGVPSRFSGSGSGTDFTLTISSLQPEDFATYYCQQHNEYPLTFGQGTKVEIKR |
| 5 | HuIgG1 mutant HisH52Ser (antibody, V domains shown, HuIgG1 mutant, human IgG1; Kabat numbering) VH: EVQLVESGGGLVQPGGSLRLSCAASGYSFTGHWMNWVRQAPGKGLEWVGMISPSDSETRYNQKFKDRFTISVDKSKNTLYLQMNSLRAEDTAVYYCARGIYFYGTTYFDYWGQGTLVTVSS VL: DIQMTQSPSSLSASVGDRVTITCRASKTISKYLAWYQQKPGKAPKLLIYSGSTLQSGVPSRFSGSGSGTDFTLTISSLQPEDFATYYCQQHNEYPLTFGQGTKVEIK |
| 2.1 | HuIgG1 mutant SerH55Asn (antibody, V domains shown, HuIgG1 mutant, human IgG1; Kabat numbering) VH: EVQLVESGGGLVQPGGSLRLSCAASGYSFTGHWMNWVRQAPGKGLEWVGMIHPSDNETRYNQKFKDRFTISVDKSKNTLYLQMNSLRAEDTAVYYCARGIYFYGTTYFDYWGQGTLVTVSS VL: DIQMTQSPSSLSASVGDRVTITCRASKTISKYLAWYQQKPGKAPKLLIYSGSTLQSGVPSRFSGSGSGTDFTLTISSLQPEDFATYYCQQHNEYPLTFGQGTKVEIK |
| 34.7 | HuIgG1 mutant H3B (antibody, V domains shown, HuIgG1 mutant, human IgG1; Kabat numbering) VH: EVQLVESGGGLVQPGGSLRLSCAASGYSFTGHWMNWVRQAPGKGLEWVGMIHPSDSETRYNQKFKDRFTISVDKSKNTLYLQMNSLRAEDTAVYYCARGIYFYGAAAFDYWGQGTLVTVSS VL: DIQMTQSPSSLSASVGDRVTITCRASKTISKYLAWYQQKPGKAPKLLIYSGSTLQSGVPSRFSGSGSGTDFTLTISSLQPEDFATYYCQQHNEYPLTFGQGTKVEIK |
| 5.9 | HuIgG1 mutant H1 (antibody, V domains shown, HuIgG1 mutant, human IgG1; Kabat numbering) VH: EVQLVESGGGLVQPGGSLRLSCAASGYAFAGAWMNWVRQAPGKGLEWVGMIHPSDSETRYNQKFKDRFTISVDKSKNTLYLQMNSLRAEDTAVYYCARGIYFYGTTYFDYWGQGTLVTVSS VL: DIQMTQSPSSLSASVGDRVTITCRASKTISKYLAWYQQKPGKAPKLLIYSGSTLQSGVPSRFSGSGSGTDFTLTISSLQPEDFATYYCQQHNEYPLTFGQGTKVEIK |
| 2.3 | HuIgG1 mutant ThrH100aAla (antibody, V domains shown, HuIgG1 mutant, human IgG1; Kabat numbering) VH: EVQLVESGGGLVQPGGSLRLSCAASGYSFTGHWMNWVRQAPGKGLEWVGMIHPSDSETRYNQKFKDRFTISVDKSKNTLYLQMNSLRAEDTAVYYCARGIYFYGATYFDYWGQGTLVTVSS VL: DIQMTQSPSSLSASVGDRVTITCRASKTISKYLAWYQQKPGKAPKLLIYSGSTLQSGVPSRFSGSGSGTDFTLTISSLQPEDFATYYCQQHNEYPLTFGQGTKVEIK |
| 1.1 | HuIgG1 mutant SerL52Ala (antibody, V domains shown, HuIgG1 mutant, human IgG1; Kabat numbering) VH: EVQLVESGGGLVQPGGSLRLSCAASGYSFTGHWMNWVRQAPGKGLEWVGMIHPSDSETRYNQKFKDRFTISVDKSKNTLYLQMNSLRAEDTAVYYCARGIYFYGTTYFDYWGQGTLVTVSS VL: DIQMTQSPSSLSASVGDRVTITCRASKTISKYLAWYQQKPGKAPKLLIYSGATLQSGVPSRFSGSGSGTDFTLTISSLQPEDFATYYCQQHNEYPLTFGQGTKVEIKR |
